The text below walks through data of the DeepSol protein solubility set.

The data set in a line: soluble on expression in E. coli; label from the status in PepcDB or PDB records.
“MGSDKIHHHHHHMDRILTFDCYGTLIDTKPVFDAISNIAKNNILNSKDAVNIYVNYEDRLMYGETYIPYDKLIKQVLEYCDMELVTNVFSKSYDEIISVHKRLKPFKEVVESLEKIHKKGYELALMSNSVHDIIDYNLDALGNVFNNVFLSEDIHAYKPQLKFFKYVEERLELKQKKHCHIAKGYWWDIVPCSKLGWRKIWVNRENKKGNKCHEPYEEVHTLDEVINLI”: the “soluble on expression in E. coli” value is recorded as “not soluble”. To “VGDYGPFGFDPDEFDRVIREGSEGLRDAFERIGRFLSSSGAGTGWSAIFEDLSRRSRPAPETAGEAGDGVWAIYTVDADGGARVEQVYATELDALRANKDNTDPKRKVRFLPYGIAVSVLDDPVDEAQ” belongs “soluble”.

Turning to “MLVDSFNRVIDYIRVSVTKQCNFRCQYCMPATPLNFFDNEELLPLDNVLEFLKIAIDEGVKKIRITGGEPLLRKGLDEFIAKLHAYNKEVELVLSTNGFLLKKMAKDLKNAGLAQVNVSLDSLKSDRVLKISQKDALKNTLEGIEESLKVGLKLKLNTVVIKSVNDDEILELLEYAKNRHIQIRYIEFMENTHAKSLVKGLKEREILDLIAQKYQIIEAEKPKQGSSKIYTLENGYQFGIIAPHSDDFCQSCNRIRLASDGKICPCLYYQDAIDAKEAIINKDTKNIKRLLKQSVINKPEKNMWNDKNSETPTRAFYYTGGLEHHHHHH”, the “soluble on expression in E. coli” value is given as “not soluble”.

Consider “ELLPEIFRQTVEHAPIAISITDLKANILYANRAFRTITGYGSEEVLGKNESILSNGTTPRLVYQALWGRLAQKKPWSGVLVNRRKDKTLYLAELTVAPVLNEAGETIYYLGMHRDTSELH”, for which the “soluble on expression in E. coli” value is reported as “soluble”. The same measure for “RLTRKEEWLREVLSSIREAIIVTNASGEIVLANPAASRLFMIEAARKRSIPVTNIEDAAMRELFERVQKRQSGIYNEELTAMTSKGKRTLKVTAVPVMRRGALFDGTVLVINDVT”: “not soluble”; for “GSHMASDRKTEFILCVETFNEKAKKGIQMLIEKGFIDSDSNRDIASFLFLNNGRLNKKTIGLLLCDPKKTSLLKEFIDLFDFKGLRVDEAIRILLTKFRLPGESQQIERIVEAFSSKYSADQSNDKVELEDKKAGKNGSESMTEDDIIHVQPDADSVFVLSYSIIMLNTDSHNPQVKDHMTFDDYSNNLRGCYNGKDFPRWYLHKIYTSIKVKEIVMPEEH”: “soluble”. Consider “MKEKIPFYNEKEFNEMMKKTKKGTFSGWYIINPENNSVEFSGSFNRQFKLNKPIIPVNTEYVTRKEFNEYKDSNDQRLIKIETTLTAQGEQINKLTQTVEKQGEQIRELQVEQKAQGEQIKAQGETLKLILQTLQKMSDRLDKIDPPKLEHHHHHH”, for which the “soluble on expression in E. coli” value is “not soluble”. Take “GEFPLQTKTDIHAVLASNGRIIYISANSKLHLGYLQGEMIGSFLKTFLHEEDQFLVESYFYNEHHLMPCTFRFIKKDHTIVWVEAAVEIVTTRAERTEREIILKMKVLEEE”: the “soluble on expression in E. coli” value is listed as “soluble”. “EVDPFVELHVRAMGLAEVYGKMNGYMPMNYEYNVGRVETGIAKALGIKPSRDYEGIVAESQKLAAKAPPRPPVLCPGCPHSASFYAIRRVVDELGDAALPS”: the “soluble on expression in E. coli” value was “not soluble”. “MTSITVQLRSGLDGVYFALKQMSGLRAKLLLVGNENPVPTVLPASQRGTPFPGGNTMTQASLIRLSELNNDAQYNLNDTSMYNPVGAAAYGVNGDKIGTVRDALVEPETGRIRYFLVDVGGWFSSKEVLVPVGYGRVDDSGVYFDSLTKDQVKDMSEYRADQAYSSEMMDTDERVLRGNQSQEEYHQRAYQTPDRLQLLEERLVVNKDRFKAGSVQIGKRIETRQETVSVPLQREEVVIERHAVTDGRAVEGAVLGEGHQTMSVDLEAERANISKQAYVTEEVSVGKRAVTETQQVTETVGREVLDVNQTGDVRTTEGTALTDDTTKRNILEHHHHHH”: the “soluble on expression in E. coli” value is recorded as “soluble”. Take “MTETDFKLKYWGNQEQDYILPTVGLGREYLVLGKLLISLSKWRAKGLIDFDVYLRPTGVGTLTNTINYEYYKGLEDKYDLTLYIRAKDSYYPLLWIDITGSSWTEEQSKERYGESIYAILSVKVETAKKYDVLGRVFFIHYNDTEDKLKCISALQILNLERQNKIKKDKFERGAKSEYYLIPTSYWKNLTELRIALRGFYQSFKEYLARSNK”: the “soluble on expression in E. coli” value was “soluble”. For “MNAGSDPVVIVSAARTIIGSFNGALAAVPVQDLGSTVIKEVLKRATVAPEDVSEVIFGHVLAAGCGQNPVRQASVGAGIPYSVPAWSCQMICGSGLKAVCLAVQSIGIGDSSIVVAGGMENMSKAPHLAYLRTGVKIGEMPLTDSILCDGLTDAFHNCHMGITAENVAKKWQVSREDQDKVAVLSQNRTENAQKAGHFDKEIVPVLVSTRRGLIEVKTDEFPRHGSNIEAMSKLKPYFLTDGTGTVTPANASGINDGAAAVVLMKKSEADKRGLTPLARIVSWSQVGVEPSIMGIGPIPAIKQAVTKAGWSLEDVDIFEINEAFAAVSAAIVKELGLNPEKVNIEGGAIALGHPLGASGCRILVTLLHTLERMGRSRGVAALCIGGGMGIAMCVQRE”, the “soluble on expression in E. coli” value is “soluble”.

Consider “MSLRIIVVGGGKVGTALCRSLVAEKHDVVLIEKKENVLKRVTKQHDIMGIVGNGANYKILEQAEVKNCDIFIAITDRDEVNMISAVLAKKMGAKETVVRMRNPEYSNPYFKDKNFLGFSSVVNPELLAAQYIANTIEFPNATSVEHFANGRVMLMEFKILEGNKLCHTSMSQIRKKFGNIVICAIERDGKLIIPDGDATIQVKDKIFVTGNRIEMILFHNYVKNKVVKNLMVIGAGRIAYYLLNILKNTNTHVKLVELNQEQAEYFSQEFPNVPVVHGDGTAKNILLEESVTSFDAVATLTGVDEENIITSMFLESIGIPKNITKVNRTSLLEIIDDKQLSSIITPKRIAVDHVMHFVRGRVNAQDSNLEAMHHIANDRIETLQFEIKETSKLANRSLASLKLKQNILIAAIIRNNKTIFPTGEDVLTVGDRIVVITLLKNITRTSDMLAREGHHHHHH”, for which the “soluble on expression in E. coli” value is “soluble”. Turning to “MSLDIAYFTKTLEGLPLEKAAEITAGLGFDCADLLIRDGHAVSPDRPEGIANAVKFFAAAGVRTSMATIDSARPDDAASRLLSCCGEAGIGQIRLGFWRYDPSRRWRVQVDEARRDLDGFERLADRFGIKLTIQLHGGTLHSSGALAVQLLAGRDPIRLGAYPDPANQIIREGSEDWRLTLDILDPWFCCMGVKNSGWFPGAYGSHGQRAWHSDWYGLDEGMVPWNEIVPHLVATGFTGVLSMHSQYRVSREQALDKVRADLAHFRRLVAAAKEGHHHHHH”, the “soluble on expression in E. coli” value is “not soluble”. On to “QVQLLQPGAELVKPGASVKLSCKASGYTFTSYWMYWVKQRPGQGLEWIGEIDPSDSYTNYNQNFKGKATLTVDKSSSTAFMQLSSLTSQDSAVYFCARSPHYYGTTYNYPMDYWGQGTSVTVSSAKTTPPSVYPLAPGCGDTTGSSVTLGCLVKGYFPESVTVTWNSGSLSSSVHTFPALLQSGLYTMSSSVTVPSSTWPSQTVTCSVAHPASSTTVDKKLEP”, for which the “soluble on expression in E. coli” value is “soluble”. Consider “MNNGFFNSDFDSIFRRMMKDMQGSNQVGNKKYYINGKEVSPEELAQLTQQGGNHSAEQSAQAFQQAAQRQQGQQGGNGNYLEQIGRNLTQEARDGLLDPVIGRDKEIQETAEVLSRRTKNNPILVGEAGVGKTAIVEGLAQAIVEGNVPAAIKDKEIISVDISSLEAGTQYRGAFEENIQKLIEGVKSSQNAVLFFDEIHQIIGSGATGSDSGSKGLSDILKPALSRGEISIIGATTQDEYRNNILKDAALTRRFNEVLVNEPSAKDTVEILKGIREKFEEHHQVKLPDDVLKACVDLSIQYIPQRLLPDKAIDVLDITAAHLSAQSPAVDKVETEKRISELENDKRKAVSAEEYKKADDIQNEIKSLQDKLENSNGEHTAVATVHDISDTIQRLTGIPVSQMDDNDIERLKNISNRLRSKIIGQDQAVEMVSRAIRRNRAGFDDGNRPIGSFLFVGPTGVGKTELAKQLAIDLFGNKDALIRLDMSEYSDTTAVSKMIGTTAGYVGYDDNSNTLTEKVRRNPYSVILFDEIEKANPQILTLLLQVMDDGNLTDGQGNVINFKNTIIICTSNAGFGNGNDAEEKDIMHEMKKFFRPEFLNRFNGIVEFLHLDKDALQDIVNLLLDDVQVTLDKKGITMDVSQDAKDWLIEEGYDEELGARPLRRIVEQQVRDKITDYYLDHTDVKHVDIDVEDNELVVKGK”, for which the “soluble on expression in E. coli” value is reported as “not soluble”.

As to “MLLKTKHFGEINIDESKIIEFKDGIPGFENLKRYVVLYDGDKNSPFRWLQNVDDGELAFAVVNPFMVVKDYDFEIPDEAVESLGIESILDVMVLSIVVVPEDISKMTMNLKAPVIINTKNNKGMQVVLDTDRYSVRHYIIEELRRQEVNVGAGSDEKEK”, the “soluble on expression in E. coli” value is on record as “soluble”.
